Data published in patent US20110065198A1 (NEXIGEN, published 2011).

Tests used:
[1] = molecular target: T1, glutathione-S-transferase (GST) alone, not fused to Vif (UniProt P08515 1-218 = GST); assay: GST pull-down, 35S in vitro translated protein, SDS-PAGE autoradiography, FIG. 3c lane 15
[2] = molecular target: T1, glutathione-S-transferase (GST) alone, …; assay: GST pull-down, 35S in vitro translated protein, SDS-PAGE autoradiography, FIG. 3b lane 13
[3] = molecular target: T1, glutathione-S-transferase (GST) alone, …; assay: GST pull-down, 35S in vitro translated protein, SDS-PAGE autoradiography, FIG. 3b lane 12
[4] = molecular target: T1, glutathione-S-transferase (GST) alone, …; assay: GST pull-down, 35S in vitro translated protein, SDS-PAGE autoradiography, FIG. 3c lane 14

T1 sequence (P08515 whole entry, the tested form may be a part): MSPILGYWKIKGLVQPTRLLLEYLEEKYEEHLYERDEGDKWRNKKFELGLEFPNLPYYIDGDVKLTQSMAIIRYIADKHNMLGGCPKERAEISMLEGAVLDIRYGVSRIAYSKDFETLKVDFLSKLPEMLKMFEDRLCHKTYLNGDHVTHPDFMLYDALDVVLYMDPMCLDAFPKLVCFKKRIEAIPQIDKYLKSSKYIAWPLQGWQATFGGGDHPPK

B1: in vitro translated PTGES3 (other)
chain: RRDYVFIEFCVEDSKDVNVNFEKSKLTFSCLGGSDNFKHLNEIDLFHCIDPNDSKHKRTDRSILCCLRKGESGQSWPRLTKERAKLNWLSVDFNNWKDWEDDSDEDMSNFDRFSEMMNNMGGDEDVDLPEVDGADDDSQDSDDEKMPDLE
Does B1 bind [1]?
Result: no binding

Does VLIVCVPNPPIDEKNATMPVTMLIRVKTSEDADELHKILLEKKDA (other) [in vitro translated NUP50] bind [2]?
Result: no binding

B2: in vitro translated HERC4 (other, human, UniProt Q5GLZ8 915-1057, looked up)
chain: AFHAGFHKVCGGKVLLLFQPNELQAMVIGNTNYDWKELEKNTEYKGEYWAEHPTIKIFWEVFHELPLEKKKQFLLFLTGSDRIPILGMKSLKLVIQSTGGGEEYLPVSHTCFNLLDLPKYTEKETLRSKLIQAIDHNEGFSLI
Does B2 bind [3]?
Result: no binding

B3: in vitro translated TPT1 (other, human, UniProt P13693 1-172, looked up)
chain: MIIYRDLISHDEMFSDIYKIREIADGLCLEVEGKMVSRTEGNIDDSLIGGNASAEGPEGEGTESTVITGVDIVMNHHLQETSFTKEAYKKYIKDYMKSIKGKLEEQRPERVKPFMTGAAEQIKHILANFKNYQFFIGENMNPDGMVALLDYREDGVTPYMIFFKDGLEMEKC
notes: also called TCTP
Does B3 bind [4]?
Result: no binding
